One molecule from PMC9135708 can be followed below.

The target of this test is anti-PfTRAP mAb AKBR-7 (mouse). The test is described as follows: BLI; Octet QKe; antibodies in culture supernatants immobilized on anti-Mouse IgG Fc Capture biosensors; antigen serially diluted (1–1000 nM) in 10x Kinetics Buffer (PBS + 0.1% BSA, 0.02% Tween-20, 0.05% sodium azide); fit to the 1:1 binding model.

B1: Plasmodium falciparum TRAP ectodomain (PfTRAP) (domain or fragment)
chain: RDVQNNIVDEIKYSEEVCNDQVDLYLLMDCSGSIRRHNWVNHAVPLAMKLIQQLNLNDNAIHLYVNVFSNNAKEIIRLHSDASKNKEKALIIIRSLLSTNLPYGRTNLTDALLQVRKHLNDRINRENANQLVVILTDGIPDSIQDSLKESRKLSDRGVKIAVFGIGQGINVAFNRFLVGCHPSDGKCNLYADSAWENVKNVIGPFMKAVCVEVEKTASCGVWDEWSPCSVTCGKGTRSRKREILHEGCTSEIQEQCEEERCPPKWEPLDVPDEPEDDQPRPRGDNSSVQKPEENIIDNNPQEPSPNPEEGKDENPNGFDLDENPENPPNPDIPEQKPNIPEDSEKEVPSDVPKNPEDDREENFDIPKKPENKHDNQNNLPNDKSDRNIPYSPLPPKVLDNERKQSDPQSQDNNGNRHVPNSEDRETRPHGRNNENRSYNRKYNDTPKHPEREEHEKPDNNKKKGESDNKYK
modifications: site-specific biotinylation using BirA ligase, when required
The Kd is the constant that tells how readily two partners part at equilibrium. B1: the Kd is 150 pM.
